“Also recorded” adds a separate entry of the source. Where two headings read alike, the source gives them in different places. Where no end group is shown, it is not given here. [ ]: non-standard residue; d: D form. Cyt = cystine residue, as named in the source; pGlu = O=C1CC[C@@H](C(=O)O)N1
Key:
[1] = molecular target: T1, IRAP (Homo sapiens, UniProt Q9UIQ6); test: Degradation of peptides by IRAP expressed in HEK 293T cells, HPLC with mass spectrometric detection; assay type: biochemical; conditions: for Substrate disappearance over 4 hr: 37° C., hIRAP transfected HEK 293T membranes, (=UT) equals untransfected control cells; for Products Identified: incubation at 37° C. with solubilized membrane protein from hIRAP transfected HEK 293T cells; for cleavage by IRAP: up to 6 hr
T1 construct: expressed in transfected cells; host or cells: HEK 293T cells (solubilised membrane protein)
Procedure: At each time point (0, 0.5, 1, 2, 4 & 6 hr), an aliquot containing 5 μg peptide was removed, and the reaction stopped by addition of 4 volumes methanol/1% trifluoroacetic acid (TPA). Samples were dried on a centrifugal vacuum evaporator prior to HPLC analysis with on-line mass spectrometric detector. […] Fragments were identified following mass spectral analysis, using Agilent ChemStation deconvolution software.

[2] = molecular target: human insulin-regulated aminopeptidase (IRAP) / angiotensin IV (AT4) receptor (human) (UniProt Q9UIQ6); test: cell-based or functional assay
[3] = molecular target: T1, IRAP; test: IRAP enzymatic activity, hydrolysis of L-leucine-β-naphthylamide (fluorescence); assay type: biochemical
Text: For example, Hek293 cells stably transfected with a eukaryotic expression vector expressing the AT4 receptor gene may be utilized. An example of this is the vector pcDNA-3 containing the cDNA encoding the full length AT4 receptor. Two assay systems are used, one for each spliced variant of the human AT4 receptor gene. The assay system involves the measurement of the rate of hydrolysis of L-leucyl β-naphthylamide by the AT4 receptor. The rate of hydrolysis by the transfected cells is followed by recording the increase in fluorescence (excitation at 340 nm, emission at 410 nm) using a purpose-designed fluorimeter. Test compounds are added to the assay system, and their effects on the hydrolysis of L-leucyl β-naphthylamide are a direct indicator of their modulation of AT4 receptor activity.
Crude membranes were prepared from HEK 293 cells stably transfected with pcDNA-3 containing the cDNA encoding the full length AT4 receptor/IRAP, using the same method as that described for bovine adrenal membranes. The membranes were solubilised in 50 mM Tris-HCl containing 1% Triton-X100 at 4° C. for 16 h. The IRAP enzymatic activity was determined by the hydrolysis of a synthetic substrate, L-leucine-β-naphthylamide, and monitored by the release of a fluorogenic product on a spectrophotometer set at excitation 340 nm and emission 410 nm. One hundred μM of the substrate was added to 10 μg of solubilised membranes, and the increase in fluorescence monitored for 10 min.
Samples were assayed 2-3 times in triplicate, except controls, which were performed 5 times in triplicate.

[4] = molecular target: T2, IRAP (AT4 receptor) (Homo sapiens, UniProt Q9UIQ6); test: ^125I-Nle^1 Ang IV binding to membranes of HEK 293 cells transfected with IRAP cDNA
T2 construct: expressed in transfected cells; host or cells: HEK 293 cells (membranes)
Text: The amount of radioligand bound to the membranes from HEK 293 cells transfected with IRAP cDNA was expressed as a percentage of radioligand bound to membranes from HEK 293 cells transfected with control plasmids.

[5] = system: rats; conditions: rat, in vivo, iv; cited from earlier work
[6] = molecular target: T3, AT4 receptor (Bos taurus, UniProt F1N1Q8); test: AT4 radioreceptor assay, ^125I-Ang IV binding to bovine adrenal membranes
T3 construct: from tissue; host or cells: bovine adrenal gland membranes
T3 sequence (F1N1Q8 1-1022): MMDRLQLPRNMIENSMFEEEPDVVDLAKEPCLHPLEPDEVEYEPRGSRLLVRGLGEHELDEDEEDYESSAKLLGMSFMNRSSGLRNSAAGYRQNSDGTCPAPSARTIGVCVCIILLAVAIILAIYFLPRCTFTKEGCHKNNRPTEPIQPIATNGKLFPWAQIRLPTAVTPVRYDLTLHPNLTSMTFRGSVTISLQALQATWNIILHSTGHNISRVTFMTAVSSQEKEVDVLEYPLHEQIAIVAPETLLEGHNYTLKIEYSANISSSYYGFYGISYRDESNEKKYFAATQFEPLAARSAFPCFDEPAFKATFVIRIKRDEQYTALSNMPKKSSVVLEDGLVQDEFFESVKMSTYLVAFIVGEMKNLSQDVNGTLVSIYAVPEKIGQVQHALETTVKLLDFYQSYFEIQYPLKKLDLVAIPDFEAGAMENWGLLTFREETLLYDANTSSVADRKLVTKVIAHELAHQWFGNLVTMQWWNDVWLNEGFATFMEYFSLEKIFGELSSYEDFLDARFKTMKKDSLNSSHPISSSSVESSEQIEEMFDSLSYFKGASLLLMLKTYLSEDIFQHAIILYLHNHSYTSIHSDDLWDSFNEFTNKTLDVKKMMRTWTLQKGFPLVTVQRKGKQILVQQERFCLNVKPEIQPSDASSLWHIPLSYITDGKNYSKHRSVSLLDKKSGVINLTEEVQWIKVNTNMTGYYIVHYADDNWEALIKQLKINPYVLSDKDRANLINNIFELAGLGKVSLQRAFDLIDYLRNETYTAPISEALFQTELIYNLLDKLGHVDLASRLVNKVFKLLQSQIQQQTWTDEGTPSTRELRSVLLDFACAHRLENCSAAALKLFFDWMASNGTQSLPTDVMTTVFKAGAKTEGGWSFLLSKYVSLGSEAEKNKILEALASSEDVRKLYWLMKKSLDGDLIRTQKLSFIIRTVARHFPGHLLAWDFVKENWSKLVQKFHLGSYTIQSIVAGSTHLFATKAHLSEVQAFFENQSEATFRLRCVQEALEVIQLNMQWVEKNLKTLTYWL
Procedure: The AT4 radioreceptor assay was used to screen the sheep brain extracts for AT4 receptor modulatory activity. The membranes were prepared using bovine adrenal glands obtained from the abattoir. The adrenals were diced, homogenized in ice-cold hypotonic buffer (50 mM Tris, 5 mM EDTA, pH 7.4) and centrifuged for 10 min at 500 g. […] The resulting pellets were re-homogenized in hypotonic buffer. […] The samples were incubated for 2 h at 37° C., and the bound ligand was separated on Whatman GF/B glass fibre filters.

[7] = molecular target: human insulin-regulated aminopeptidase (IRAP) / angiotensin IV (AT4) receptor (human) (UniProt Q9UIQ6); test: competitive inhibition of L-leucine-β-naphthylamide cleavage by solubilised membranes of IRAP-transfected HEK 293 cells; Ki from IC50=Ki(1+[S]/Km)
[8] = molecular target: human insulin-regulated aminopeptidase (IRAP) / angiotensin IV (AT4) receptor (human) (UniProt Q9UIQ6); test: radioligand binding, HEK 293 and CHO cells transfected with IRAP cDNA
[9] = molecular target: human insulin-regulated aminopeptidase (IRAP) / angiotensin IV (AT4) receptor (human) (UniProt Q9UIQ6); test: radioligand displacement of 125I-Nle-Ang IV
[10] = system: 3T3L1 cells; test: 2-deoxyglucose uptake in differentiated 3T3L1 adipocytes
Procedure: The effect of IRAP inhibitors on the regulation of glucose uptake was determined in 3T3L1 cells. 3T3L1 fibroblasts were differentiated by the addition of DMEM containing 5% fetal calf serum, 4 μg/ml insulin, 0.25 mM dexamethasone and 0.5 mM 3-isobutyl-1-methyl-xanthine. […] The reaction was stopped after 10 min by washing the cells in PBS. The cells were then solubilized in 0.5 N NaOH and counted.

[11] = molecular target: T4, human insulin-regulated aminopeptidase (IRAP) / angiotensin IV (AT4) receptor (human, UniProt Q9UIQ6 1-1025); test: competition with 125I-Nle1 Ang IV on IRAP-transfected cells
T4 construct: whole, on cells; also called AT4 receptor/IRAP; hIRAP

[12] = molecular target: human insulin-regulated aminopeptidase (IRAP) / angiotensin IV (AT4) receptor (human) (UniProt Q9UIQ6); test: cell-based or functional assay; remark: listed apart in the source

Chain of human insulin-regulated aminopeptidase (IRAP) / angiotensin IV (AT4) receptor (human) (Q9UIQ6 whole entry): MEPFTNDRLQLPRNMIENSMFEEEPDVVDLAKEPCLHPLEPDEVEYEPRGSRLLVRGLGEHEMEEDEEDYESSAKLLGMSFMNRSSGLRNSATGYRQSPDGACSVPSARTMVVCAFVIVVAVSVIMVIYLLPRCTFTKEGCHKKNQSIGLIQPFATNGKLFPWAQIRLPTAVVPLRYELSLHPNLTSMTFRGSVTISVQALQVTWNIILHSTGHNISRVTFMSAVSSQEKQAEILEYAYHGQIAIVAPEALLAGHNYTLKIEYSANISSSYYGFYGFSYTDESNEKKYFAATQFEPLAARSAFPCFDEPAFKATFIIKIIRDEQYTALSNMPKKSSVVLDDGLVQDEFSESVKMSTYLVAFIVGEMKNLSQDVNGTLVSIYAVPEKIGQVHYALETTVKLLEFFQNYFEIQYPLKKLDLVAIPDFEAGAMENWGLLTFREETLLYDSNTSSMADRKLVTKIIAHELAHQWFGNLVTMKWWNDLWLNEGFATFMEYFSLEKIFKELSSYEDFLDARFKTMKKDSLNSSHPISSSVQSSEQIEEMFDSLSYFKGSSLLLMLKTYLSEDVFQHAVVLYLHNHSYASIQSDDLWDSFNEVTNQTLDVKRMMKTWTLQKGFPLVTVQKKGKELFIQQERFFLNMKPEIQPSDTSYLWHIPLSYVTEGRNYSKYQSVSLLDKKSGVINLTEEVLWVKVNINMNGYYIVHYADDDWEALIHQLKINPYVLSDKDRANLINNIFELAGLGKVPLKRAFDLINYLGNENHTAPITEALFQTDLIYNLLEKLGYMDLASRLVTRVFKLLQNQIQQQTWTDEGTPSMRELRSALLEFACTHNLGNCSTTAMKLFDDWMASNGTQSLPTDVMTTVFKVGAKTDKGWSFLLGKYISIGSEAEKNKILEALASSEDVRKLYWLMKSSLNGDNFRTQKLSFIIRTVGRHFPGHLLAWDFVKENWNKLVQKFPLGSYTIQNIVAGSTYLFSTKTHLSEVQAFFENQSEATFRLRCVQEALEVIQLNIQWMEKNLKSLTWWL
T1 sequence (Q9UIQ6 whole entry): as above
T2 sequence (Q9UIQ6 whole entry): as above
T4 sequence (Q9UIQ6 whole entry): as above

In the case of “[pGlu^4Cyt^6]AVP(4-9) ([pGlu]N[Cyt]PRG; ends and bridges not checked; also: Cyt6: cystine at position 6, partner not given here) [pGlu^4Cyt^6AVP]”, the “Substrate disappearance over 4 hr” value [1] is reported as “None”, the “Products Identified” value [1] is reported as “None” and the “cleavage by IRAP” value [1] is reported as “No cleavage”.

In the case of “arginine-vasopressin (from UniProt P01185 20-28) (peptide)”, the IC50 of inhibition of L-leucine-β-naphthylamide cleavage [2] is reported as > 40000 nM.

With Ang I: angiotensin peptide (DRVYIHPFHL) the “Substrate disappearance over 4 hr” value [1] was “None”, the “Products Identified” value [1] was “None” and the “cleavage by IRAP” value [1] was “no cleavage”.

With `NC(=O)CC[C@@H]1NC(=O)[C@H](Cc2ccccc2)NC(=O)[C@H](Cc2ccc(O)cc2)NC(=O)[C@@H](N)CSSC[C@@H](C(=O)N2CCC[C@H]2C(=O)N[C@@H](CCCN=C(N)N)C(=O)NCC(N)=O)NC(=O)[C@H](CC(N)=O)NC1=O` [AVP, arginine-vasopressin] the IC50 [3] was > 40000 nM, the “Substrate disappearance over 4 hr” value [1] was 58% and the “Products Identified” value [1] was “YFQNCytPRG-NH2; also recorded: FQNCytPRG-NH2”. For the same molecule, the “cleavage by IRAP” value [1] was “most rapidly cleaved”.

For “α-neo-Endorphin (YGGFLRKYPK) [opioid peptide, 10 residues]”, the “Substrate disappearance over 4 hr” value [1] was 9%, the “Products Identified” value [1] was “GGFLRKYPK,; also recorded: GFLRKYPK, FLRKYPK” and the “cleavage by IRAP” value [1] was “at least three N-terminal residues were cleaved”.

For acetylated AVP [AcAVP], the “Substrate disappearance over 4 hr” value [1] was “None”, the “Products Identified” value [1] was “None” and the “cleavage by IRAP” value [1] was “No cleavage”.

With Met-enkephalin the “Substrate disappearance over 4 hr” value [1] was 65%, the “Products Identified” value [1] was “GGFM” and the “cleavage by IRAP” value [1] was “most rapidly cleaved”.

With “α-Endorphin (YGGFMTSEKSQTPLVT) [16 residues, first five identical to met-enkephalin]” the “Substrate disappearance over 4 hr” value [1] was “None”, the “Products Identified” value [1] was “None” and the “cleavage by IRAP” value [1] was “not cleaved at all”.

In the case of `CC[C@H](C)[C@@H]1NC(=O)[C@H](Cc2ccc(O)cc2)NC(=O)[C@@H](N)CSSC[C@@H](C(=O)N2CCC[C@H]2C(=O)N[C@@H](CC(C)C)C(=O)NCC(N)=O)NC(=O)[C@H](CC(N)=O)NC(=O)[C@H](CCC(N)=O)NC1=O` [OXY, oxytocin], the “Substrate disappearance over 4 hr” value [1] is reported as 37%, the “Products Identified” value [1] is reported as “YIQNCytPLG-NH2” and the “cleavage by IRAP” value [1] is reported as “most rapidly cleaved”.

In the case of `CC(C)C[C@H](NC(=O)[C@@H](O)[C@H](N)Cc1ccccc1)C(=O)O` [bestatin], the inhibition at 10 µM ([3]; 10 μM bestatin) is reported as 60%.

Molecule `CC(C)[C@H](N)CN[C@@H](Cc1ccc(O)cc1)C(=O)N[C@H](CN[C@@H](Cc1c[nH]cn1)C(=O)N1CCC[C@H]1C(=O)N[C@@H](Cc1ccccc1)C(=O)O)C(C)C` [Divalinal - Ang IV] has an IC50 [4] of 845 nM, an IC50 [3] of 4000 nM and a Ki [3] of 2250 nM. The “type of inhibition of IRAP” value ([3]; Lineweaver-Burk analysis) was “competitive inhibition”, the “effect on the swim maze enhancement by Nle-angiotensin IV” value [5] was “blocked” and the “Substrate disappearance over 4 hr” value [1] was “None”. The “Products Identified” value [1] was “None” and the “cleavage by IRAP” value [1] was “no cleavage”.

With “Neurotensin (from UniProt P30990 151-163) (peptide)” the Substrate disappearance over 4 hr [2] was 22%.

KYLPGPLQ showed a Ki ([6]; bovine adrenal membranes, synthetic peptides, read-out: affinity in competing for ^125I-Ang IV binding) of 1 to 5 nM.

In the case of “GnRH: peptide tested as potential IRAP substrate”, the “Substrate disappearance over 4 hr” value [1] is reported as “None”, the “Products Identified” value [1] is reported as “None” and the “cleavage by IRAP” value [1] is reported as “No cleavage”.

In the case of angiotensin III [Ang III], the “Substrate disappearance over 4 hr” value [1] is reported as 7% (=UT) and the “Products Identified” value [1] is reported as “RVYIHP”.

divalinal-Ang IV (peptide) gave an IC50 inhibition leucine β-naphthylamide [2] of 4000 nM.

“oxytocin (from UniProt P01178 20-28) (peptide)” gave a Substrate disappearance over 4 hr [2] of 37%.

For VYPWT, the “AT4 receptor/IRAP binding activity of fragment” value ([6]; structure-activity study on LVVYPWTQRF) was “retained full AT4 receptor/IRAP binding activity”.

For angiotensin II (DRVYIHPF) [Ang II], the “Substrate disappearance over 4 hr” value [1] was “None”, the “Products Identified” value [1] was “None” and the “cleavage by IRAP” value [1] was “no cleavage”.

Nle^1-Ang IV (Nle-YIHPF) (peptide) gave a Ki [7] of 340 nM, a fold increase in specific binding sites over control cells [8] of 10 to 20 fold and an IC50 inhibition leucine β-naphthylamide [2] of 600 nM. For the same molecule, the Substrate disappearance over 4 hr [2] was 16% and the IC50 [9] was 3.32 nM.

With insulin the “glucose uptake under insulin stimulation” value ([10]; 0.7 nM insulin) was 13.5±2.6 pmol/min/well and the “glucose uptake under insulin stimulation” value ([10]; 70 nM insulin) was 19.7±1.18 pmol/min/well.

“α-neo-Endorphin (from UniProt P01213 175-184) (peptide)” gave a Substrate disappearance over 4 hr [2] of 9%.

For sar^1Ile^8-Ang II, the “Substrate disappearance over 4 hr” value [1] was “None” and the “Products Identified” value [1] was “None”.

For “Angiotensin III (from UniProt P01019 26-32) (peptide)”, the Substrate disappearance over 4 hr [2] was 7%.

With `CC(C)C[C@@H](N)[C@H](O)C(=O)N[C@H](C(=O)N[C@H](C(=O)N[C@@H](CC(=O)O)C(=O)O)C(C)C)C(C)C` [amastatin] the inhibition at 100 µM ([3]; 100 μM amastatin) was 25%.

B1: KYLPGPLQ (complexin II fragment) (peptide)
peptide: KYLPGPLQ
notes: Purified from blood-free sheep cerebral cortex; synthetic peptide used in the assays; also called complexin fragment
B1: binds [11].

For YGGFM (peptide, UniProt P01210 100-104, looked up) [Met-enkephalin], the Substrate disappearance over 4 hr [12] was 65%.

Reference: patent US20050020519A1, “Modulation of insulin-regulated aminopeptidase (irap)/angiotensin iv (at4) receptor activity” (priority 2001, published 2005)
